Reference: US20260183373A1

Experiments:
Aβ(1-40) [1] = biological target: Aβ(1-40) (UniProt P05067)
Aβ(1-42) [2] = biological target: Aβ(1-42) (UniProt P05067)
Aβ(1-42) [3] = biological target: Aβ(1-42) (UniProt P05067); experiment: cell-based or functional assay
Aβ(1-40) [4] = biological target: Aβ(1-40) (UniProt P05067); experiment: cell-based or functional assay
Aβ(1-42) [5] = biological target: Aβ(1-42) (UniProt P05067); remark: listed apart in the source
Aβ(1-40) [6] = biological target: Aβ(1-40) (UniProt P05067); remark: listed apart in the source

Chain of neprolysin (NEP) (P08473 52-750 limits assumed): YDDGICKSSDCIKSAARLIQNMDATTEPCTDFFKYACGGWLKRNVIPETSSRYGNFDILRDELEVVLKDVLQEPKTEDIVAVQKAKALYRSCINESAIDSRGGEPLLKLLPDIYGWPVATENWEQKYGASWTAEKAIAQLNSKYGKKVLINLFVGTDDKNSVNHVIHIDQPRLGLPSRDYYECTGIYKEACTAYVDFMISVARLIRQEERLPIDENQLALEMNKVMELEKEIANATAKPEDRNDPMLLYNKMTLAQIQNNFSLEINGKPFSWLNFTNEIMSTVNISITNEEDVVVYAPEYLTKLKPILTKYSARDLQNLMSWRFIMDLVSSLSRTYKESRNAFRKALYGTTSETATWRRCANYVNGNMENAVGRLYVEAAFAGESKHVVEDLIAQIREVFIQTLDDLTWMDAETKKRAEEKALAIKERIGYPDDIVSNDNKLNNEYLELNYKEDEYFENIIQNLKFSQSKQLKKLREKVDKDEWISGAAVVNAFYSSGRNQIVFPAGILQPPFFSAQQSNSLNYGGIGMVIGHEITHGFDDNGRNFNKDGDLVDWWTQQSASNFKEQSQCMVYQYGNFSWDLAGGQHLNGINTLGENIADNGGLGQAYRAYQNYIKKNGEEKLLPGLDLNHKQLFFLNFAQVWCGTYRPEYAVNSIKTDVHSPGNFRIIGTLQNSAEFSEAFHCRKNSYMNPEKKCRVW
Chain of MMP2 (enzyme) (P08253 110-660): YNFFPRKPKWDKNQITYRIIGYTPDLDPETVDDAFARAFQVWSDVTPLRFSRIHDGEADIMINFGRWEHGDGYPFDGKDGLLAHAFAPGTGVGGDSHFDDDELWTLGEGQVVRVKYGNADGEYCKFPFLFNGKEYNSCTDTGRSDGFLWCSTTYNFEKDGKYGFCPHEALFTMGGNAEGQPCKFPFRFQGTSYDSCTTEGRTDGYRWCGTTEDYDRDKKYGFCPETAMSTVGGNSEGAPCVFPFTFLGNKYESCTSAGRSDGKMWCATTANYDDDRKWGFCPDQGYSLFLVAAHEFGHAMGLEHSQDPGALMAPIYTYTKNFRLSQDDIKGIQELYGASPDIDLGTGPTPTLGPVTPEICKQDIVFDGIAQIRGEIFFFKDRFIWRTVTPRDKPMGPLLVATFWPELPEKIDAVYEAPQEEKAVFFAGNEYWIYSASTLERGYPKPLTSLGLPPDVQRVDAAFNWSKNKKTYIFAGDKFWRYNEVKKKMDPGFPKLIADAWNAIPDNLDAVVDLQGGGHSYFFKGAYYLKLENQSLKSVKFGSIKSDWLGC

Row | EC50 (read off the curve) (Aβ(1-40) [1]) [nM] | EC50 (read off the curve) (Aβ(1-42) [2]) [nM] | EC50 of Aβ cleavage (ELISA-based assay of intact Aβ) (Aβ(1-42) [3]) [nM] | EC50 of Aβ cleavage (ELISA-based assay of intact Aβ) (Aβ(1-40) [4]) [nM] | EC50 of Aβ(1-42) cleavage (intact Aβ by ELISA) (Aβ(1-42) [5]) [nM] | EC50 of Aβ(1-40) cleavage (intact Aβ by ELISA) (Aβ(1-40) [6]) [nM] | Substance
1 | 90 | – | – | – | – | – | MMP2 (enzyme)
2 | 50 | 60 | – | – | – | – | NEP2 (enzyme)
3 | – | – | 0.1 | 0.1 | – | – | insulin-degrading enzyme (IDE) (from UniProt P14735 42-1019)
4 | – | – | 12 | 12 | 44 | 19 | neprolysin (NEP) (from UniProt P08473 52-750) (enzyme)
